# B1: B42-Mxi1 (other, UniProt P50539 1-228, looked up, not shown: large carriers)
# chain: MERVKMINVQRLLEAAEFLERRERECEHGYASSFPSMPSPRLQHSKPPRRLSRAQKHSSGSSNTSTANRSTHNELEKNRRAHLRLCLERLKVLIPLGPDCTRHTTLGLLNKAKAHIKKLEEAERKSQHQLENLEREQRFLKWRLEQLQGPQEMERIRMDSIGSTISSDRSDSEREEIEVDVESTEFSHGEVDNISTTSISDIDDHSSLPSIGSDEGYSSASVKLSFTS
# notes: Yeast two-hybrid prey, used as a positive control with Max
# Target: T1, TetR-RasV12A186 (bacterial transposon Tn10, UniProt P04483 1-207; P01112 1-189)
# T1 construct: Yeast two-hybrid bait
# Experiment: yeast two-bait interaction trap, TetOp-URA3 reporter (growth without uracil)
# T1 sequence (P04483 1-207, tags or fused parts left off): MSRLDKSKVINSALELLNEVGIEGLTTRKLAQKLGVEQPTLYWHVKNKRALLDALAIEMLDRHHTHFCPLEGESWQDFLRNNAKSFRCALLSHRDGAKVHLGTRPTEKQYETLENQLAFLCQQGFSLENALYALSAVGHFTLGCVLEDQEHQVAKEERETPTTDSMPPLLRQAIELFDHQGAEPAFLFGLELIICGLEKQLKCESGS
binder,measurement,value
B1,binding result,no binding

# Reference: patent publication US6858382 (GENERAL HOSPITAL, dated 2005)
